{"source": "paper PMC6650547", "about": "(2019)", "binders": {"B1": {"name": "SUDV VP35 wild-type chaperone domain peptide (residues 1 to 34) (peptide)", "peptide": "MQQDRTYRHHGPEVSGWFSEQLMTGKIPLTEVFV"}}, "target": "T1, His-SUDV-NP(34-367) (Sudan virus (SUDV), strain Boniface, UniProt Q9QP77 34-367)", "T1 chain": "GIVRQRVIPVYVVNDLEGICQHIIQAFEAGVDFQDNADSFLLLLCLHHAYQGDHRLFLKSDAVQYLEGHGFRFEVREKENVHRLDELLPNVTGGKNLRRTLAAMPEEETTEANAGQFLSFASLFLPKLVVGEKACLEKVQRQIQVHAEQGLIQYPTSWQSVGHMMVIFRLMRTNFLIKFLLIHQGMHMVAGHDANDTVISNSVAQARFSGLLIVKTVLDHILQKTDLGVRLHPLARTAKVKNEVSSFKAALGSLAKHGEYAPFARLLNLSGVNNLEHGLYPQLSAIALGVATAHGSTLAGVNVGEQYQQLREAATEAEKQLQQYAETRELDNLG", "test": "BLI"}
{"binder": "B1", "values": [{"measurement": "koff", "value": 0.00583, "unit": "s⁻¹"}]}
